The record followed here is patent publication US20220403048A1, “BINDING MOLECULES TO ARGINASE II [ARG2]” (Cancer Research Technology Limited, priority 2019, published 2022).

The target of one test is T1, human ARG1 (Homo sapiens, UniProt P05089).
T1 construct: Avi tag (N); His10 (after a GGG linker) (C); made in house; host or cells: E. coli BL21 (DE3)
T1 sequence (P05089 with tags, fused parts or gaps): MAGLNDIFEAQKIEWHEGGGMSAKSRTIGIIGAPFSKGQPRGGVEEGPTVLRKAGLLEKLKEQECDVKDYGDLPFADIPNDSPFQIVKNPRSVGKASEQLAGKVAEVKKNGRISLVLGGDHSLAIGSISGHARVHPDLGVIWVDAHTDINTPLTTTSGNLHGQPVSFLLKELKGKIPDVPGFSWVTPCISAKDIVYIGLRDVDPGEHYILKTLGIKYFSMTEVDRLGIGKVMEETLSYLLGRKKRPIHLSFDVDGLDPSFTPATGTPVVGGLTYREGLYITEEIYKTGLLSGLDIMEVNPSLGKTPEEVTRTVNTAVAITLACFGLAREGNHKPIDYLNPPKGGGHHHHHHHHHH
The test can be described thus: Bio-Layer Interferometry (OctetRED) binding, human ARG1. The following applies: Fab analyte up to 120 nM, screening assay on anti-His surface. As to the method: The affinity of binding between the Fab of C0020187 and human ARG2, cynomolgus ARG2 and human ARG1 was estimated using assays in which the biotinylated ARG antigen was captured on a streptavidin sensor tip. A fresh sensor tip was used for each measurement and no regeneration was used. A series of dilutions of the C0020187 Fab (3.25-240 nM) were individually placed in contact with the ligand surface for a sufficient amount of time to observe sensorgrams that could be fitted to an appropriate binding model with confidence (typically 5 minutes), followed by an appropriate length of dissociation time (typically 10 minutes). Blank reference (0 nM Fab) data were subtracted from each dataset to reduce the impact of any buffer artefacts or non-specific binding effects. An appropriate binding model was then fitted simultaneously to the data from each analyte titration using the Octet Evaluation software.
The binding of affinity-matured antibodies to human ARG1 was also tested on the OctetRED system using a screening assay which stably captures […] as the ligand on an anti-His surface. The Fabs were typically tested in an analyte range of 1.8 to 120 nM, with an association time of 5 minutes and a dissociation time of 10 minutes. Sensors were regenerated using 10 mM glycine pH 1.5 after each cycle.
Binding of the second-generation antibodies to human ARG was also tested on the OctetRED system using a screening assay which stably captures […] as the ligand on an anti-His surface. The Fabs were tested as analyte up to 120 nM, with an association time of 5 minutes and a dissociation time of 10 minutes. Sensors were regenerated using 10 mM glycine pH 1.5 after each cycle.
In general terms: In BLI a coated tip is dipped into the sample, and binding shifts an interference pattern.

Test [1] has as its target T2, ARG2 from CCM of LNCaP, A673 and A2780-Cis (Homo sapiens, UniProt P78540).
T2 construct: ARG2 is released into the CCM from LNCaP, A673 and A2780-Cis cell lines; endogenous in cells; host or cells: cell conditioned medium of cancer cell lines (LNCaP, A673, A2780-Cis and others)
T2 sequence (P78540 23-354): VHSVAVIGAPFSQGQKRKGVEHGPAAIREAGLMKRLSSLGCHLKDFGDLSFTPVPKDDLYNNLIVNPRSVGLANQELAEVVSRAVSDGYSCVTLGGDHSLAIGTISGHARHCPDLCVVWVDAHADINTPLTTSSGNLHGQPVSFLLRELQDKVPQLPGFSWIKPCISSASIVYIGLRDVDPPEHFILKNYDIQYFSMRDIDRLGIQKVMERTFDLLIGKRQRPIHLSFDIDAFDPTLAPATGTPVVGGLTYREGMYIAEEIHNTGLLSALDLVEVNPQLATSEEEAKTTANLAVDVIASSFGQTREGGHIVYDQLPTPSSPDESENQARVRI
The test can be described thus: ELISA binding to ARG2 from CCM of cancer cell lines. The following applies: biotinylated IgG at 10 μg/ml as detection antibody, FIG. 18. The text has this: In this experiment the presence of ARG2 in CCM samples was validated using commercial ARG2 ELISA kit (Cloud-Clone Corp., cat. SED796Hu). Additionally, the protocol was modified to include 1st generation IgG C0021061 and 2nd generation IgG C0021158 as detection antibodies to confirm binding of ARG2 IgG's to ARG2 expressed from cancer cell lines (FIG. 18).
The commercial kit is a 96-well plate pre-coated with anti-ARG2, which uses sandwich ELISA to quantify ARG2 in samples. Standards, biotinylated detection antibody, detection, substrate, and stop reagents are all provided in the kit. […] 100 μl of diluted CCM/media control was used for each well of kit and ELISA was performed following manufacturer's protocol. Each sample was run in duplicate. In parallel, CCM/media control samples were also included to test for binding of C0021061 and C0021158 to ARG2 in CCM samples. […] At the end of the assay, absorbance at 450 nm was read out on PheraStar (BMG). The absorbance values of standards were used to make standard curve and was used to interpolate ARG2 levels in CCM samples (where PAD detection antibody supplied with the kit was used). Similarly, absorbance reads from wells that received C0021061 and C0021158 were used to […] and 2nd generation ARG2 IgGs (C0021061 and C0021158 respectively) bind to ARG2 in CCM samples (FIG. 18).
On the technique in general: ELISA stands for enzyme-linked immunosorbent assay.

B1: C0021158 IgG: anti-ARG2 antibody, VH SEQ ID NO: 282, VL SEQ ID NO: 287; IgG and Fab versions carry these sequences (antibody, listed as Homo sapiens, V domains shown)
VH: EVQLLESGGGLVQPGGSLRLSCAASGFTFRYEVAAWVRQAPGKGLEWVSAISGPIPKGYYADSVKGRFTISRDNSKNTLYLQMNSLRAEDTAVYYCARLRADLGLYMDLWGRGTLVTVSS
VL: QSVLTQPPSVSAAPGQKVTISCSGSSSNIGNHYVSWYQQLPGTAPKLLIYDNSERTAGVPDRFSGSKSGTSATLGITGLQTGDEADYYCGTWDELTSNLVFGGGTKLTVL
modifications: C0021158 IgG
Regarding B1, in the test with human ARG1, the “Results, binding to human ARG1 (BLI)” value is listed as “No binding observed”.

B2: C0021139: anti-ARG2 antibody, VH SEQ ID NO: 212, VL SEQ ID NO: 217 (antibody, listed as Homo sapiens, V domains shown)
VH: EVQLLESGGGLVQPGGSLRLSCAASGFTFQYDYQVWVRQAPGKGLEWVSAISGSGGSTYYADSVKGRFTISRDNSKNTLYLQMNSLRAEDTAVYYCARLRADLGLYMDLWGRGTLVTVSS
VL: QSVLTQPPSVSAAPGQKVTISCSGSSSNIGNHYVSWYQQLPGTAPKLLIYDNSERTSGIPDRFSGSKSGTSATLGITGLQTGDEADYYCGTWDELTSNLVFGGGTKLTVL
modifications: C0021139
Turning to B2, the “Results, binding to human ARG1 (BLI)” value with human ARG1 is “No binding observed”.

B3: C0021022: anti-ARG2 antibody, VH SEQ ID NO: 42, VL SEQ ID NO: 47 (antibody, listed as Homo sapiens, V domains shown)
VH: EVQLLESGGGLVQPGGSLRLSCAASGFTFSSYAMSWVRQAPGKGPEWVSAISGFSPYYADSVKGRFTISRDNSKNTLYLQMNSLRAEDTAVYYCARLRADLGLYMDLWGRGTLVTVSS
VL: QSVLTQPPSVSAAPGQKVTISCSGSSSNIGNHYVSWYQQLPGTAPKLLIYDNSERPSGIPDRFSGSKSGTSATLGITGLQTGDEADYYCGTWDSSLSALVFGGGTKLTVL
modifications: C0021022
For the molecule B3, the “Results, binding to human ARG1 (BLI)” value in the test with human ARG1 is “No binding observed”.

B4: C0021177: anti-ARG2 antibody, VH SEQ ID NO: 322, VL SEQ ID NO: 327 (antibody, listed as Homo sapiens, V domains shown)
VH: EVQLLESGGGLVQPGGSLRLSCAASGFTFRYEVAAWVRQAPGKGLEWVSAISGPAPKGYYADSVKGRFTISRDNSKNTLYLQMNSLRAEDTAVYYCARLRADLGLYMDLWGRGTLVTVSS
VL: QSELTQPPTASAAPGQKVTISCSGSSSNIGNHYVSWYQQLPGTAPKLLIYDTTVLSSGIPDRFSGSKSGTSATLGITGLQTGDEADYYCGTWDELTSNLVFGGGTKLTVL
modifications: C0021177
For the molecule B4, in the test with human ARG1, the “Results, binding to human ARG1 (BLI)” value is reported as “No binding observed”.

B5: C0021133: anti-ARG2 antibody, VH SEQ ID NO: 192, VL SEQ ID NO: 197 (antibody, listed as Homo sapiens, V domains shown)
VH: EVQLLESGGGLVQPGGSLRLSCAASGFTFRYDHHVWVRQAPGKGLEWVSAISGSGGSTYYADSVKGRFTISRDNSKNTLYLQMNSLRAEDTAVYYCARLRADLGLYMDLWGRGTLVTVSS
VL: QSVLTQPPSVSAAPGQKVTVSCSGSSSNIGNHYVSWYQQLPGTAPKLLIYDTTVLSSGIPDRFSGSKSGTSATLGITGLQTGDEADYYCGTWDELTSNLVFGGGTKLTVL
modifications: C0021133
For B5, the “Results, binding to human ARG1 (BLI)” value with human ARG1 was “No binding observed”.

B6: C0021180: anti-ARG2 antibody, VH SEQ ID NO: 332, VL SEQ ID NO: 337 (antibody, listed as Homo sapiens, V domains shown)
VH: EVQLLESGGGLVQPGGSLRLSCAASGFTFRYEVAAWVRQAPGKGLEWVSAISGPIPKGYYADSVKGRFTISRDNSKNTLYLQMNSLRAEDTAVYYCARLRADLGLYMDLWGRGTLVTVSS
VL: QSVLTQPPTVSAAPGRKVTISCSGSSSNIGDHHVSWYQQLPGAAPKLLIYDTDHMASGIPDRFSGSRSGTSATLGITGLQTGDEADYYCGTWDSSLSALVFGGGTKLTVL
modifications: C0021180
Consider B6, for which, in the test with human ARG1, the “Results, binding to human ARG1 (BLI)” value is recorded as “No binding observed”.

B7: C0021181: anti-ARG2 antibody, VH SEQ ID NO: 342, VL SEQ ID NO: 347 (antibody, listed as Homo sapiens, V domains shown)
VH: EVQLLESGGGLVRPGGSLRLSCAASEFTFRYDYHVWVRQAPGKGLEWVSAISGSGGSTYYADSVKSRFTISRDNSKNTLYLQMNSLRAEDTAVYYCARLRADLGLYMDLWGRGTLVTVSS
VL: QSVLTQPPSVSAAPGQKVAVSCSGSSSNIGSHYVSWYQQLPGTAPKLLIYDNSERTSGIPDRFSGSKSGTSATLGITGLQTGDEADYYCGTWDELTSNLVFGGGTRLTVL
modifications: C0021181
B7: the “Results, binding to human ARG1 (BLI)” value in the test with human ARG1 is “No binding observed”.

B8: C0021158: anti-ARG2 antibody, second generation lead, VH SEQ ID NO: 272, VL SEQ ID NO: 277 (antibody, listed as Homo sapiens, V domains shown)
VH: EVQLLESGGGLVQPGGSLRLSCAASGFTFRYEVAAWVRQAPGKGLEWVSAISGPIPKGYYADSVKGRFTISRDNSKNTLYLQMNSLRAEDTAVYYCARLRADLGLYMDLWGRGTLVTVPS
VL: QSVLTQPPSVSAAPGQKVTISCSGSSSNIGNHYVSWYQQLPGTAPKLLIYDNSERTAGVPDRFSGSKSGTSATLGITGLQTGDEADYYCGTWDELTSNLVFGGGTKLTVL
modifications: C0021158
Take B8: in test [1], the “binding to ARG2 from CCM of LNCaP, A673 and A2780-Cis (ELISA)” value was “binding”.

B9: C0021092: anti-ARG2 antibody, VH SEQ ID NO: 92, VL SEQ ID NO: 97 (antibody, listed as Homo sapiens, V domains shown)
VH: EVQLLESGGGLVQPGGSLRLSCAASGFTFSRYAMSWVRQAPGKGLEWVSAHTHSPGSTYYADSVKGRFTISRDNSKNTLYLQMNSLRAEDTAVYYCARLRADLGLYMDLWGRGTLVTVSS
VL: QSVLTQPPSVSAAPGQKVTISCSGSSSNIGNHYVSWYQQLPGTAPKLLIYNSVARPSGIPDRFSGSKSGTSATLGITGLQTGDEADYYCGTWDSSLSALVFGGGTKLTVL
modifications: C0021092
Take B9: in the test with human ARG1, the “Results, binding to human ARG1 (BLI)” value is given as “No binding observed”.

B10: C0021065: anti-ARG2 antibody, VH SEQ ID NO: 72, VL SEQ ID NO: 77 (antibody, listed as Homo sapiens, V domains shown)
VH: EVQLLESGGGLVQPGGSLRLSCAASGFTFSSYAMSWVRQAPGKGPEWVSAISGFSPYYADSVKGRFTISRDNSRNTLYLQMNSLRAEDTAVYYCARLRADLGLYMDLWGRGTLVTVSS
VL: QSVLTQPPSVSAAPGQKVTISCSGSSSNIGNHYVSWYQQLPGTAPKLLIYDTDHMASGIPDRFSGSKSGTSATLGITGLQTGDEADYYCGTWDSSLSALVFGGGTKLTVL
modifications: C0021065
As for B10, the “Results, binding to human ARG1 (BLI)” value with human ARG1 is reported as “No binding observed”.
